In doi:10.1101/2022.12.02.518933:
Positions count from the first letter of the chain named. Names and notes keep the numbering of the source.

B1: AF546-labeled BtuF harboring the E202A mutation (natural protein)
chain: APRVITLSPANTELAFAAGITPVGVSSYSDYPPQAQKIEQVSTWQGMNLERIVALKPDLVIAWRGGNAERQVDQLASLGIKVMWVDATSIEQIANALRQLAPWSPQPDKAEQAAQSLLDQYAQLKAQYADKPKKRVFLQFGINPPFTSGKESIQNQVLEVCGGENIFKDSRVPWPQVSRAQVLARSPQAIVITGGPDQIPKIKQYWGEQLKIPVIPLTSDWFERASPRIILAAQQLCNALSQVD
modifications: Alexa Fluor 546 C5 maleimide on the cysteine appended to the C-terminus
B2: AlexaFluor 546 (AF546)-labeled E. coli BtuF (natural protein)
chain: B1 chain with A180E
modifications: Alexa Fluor 546 C5 maleimide on the cysteine appended to the C-terminus

Biological target: AF647-labeled cysteine-less BtuCD Q111C reconstituted into nanodiscs (E. coli) (UniProt P06609)
Assay: FRET or BRET

| Binder | k fast (double exponential, green emission on addition of BtuCD*) [s⁻¹] | k slow (double exponential, green emission on addition of BtuCD*) [s⁻¹] | k fast (double exponential, with AMPPNP) [s⁻¹] | k fast (double exponential; initial single-lobe association) [s⁻¹] | k slow (double exponential, with AMPPNP) [s⁻¹] | k slow (double exponential; locking) [s⁻¹] |
| --- | --- | --- | --- | --- | --- | --- |
| B1 | 0.124 | 0.016 | – | – | – | – |
| B2 | – | – | 0.108 | 0.158 | 0.009 | 0.025 |
